Laboratory results as given in patent US20240343799A1 (Innovent, published 2024).

T1: CD79b on the surface of B-cell non-Hodgkin's lymphoma cells (human, UniProt P40259 29-229)
T1 construct: whole, on cells; Endogenous CD79b of the cell lines; on cells it stands in the B cell receptor complex with CD79a; also called CD79b on Ramos cells; CD79b on BJAB cells
T1 sequence (looked up): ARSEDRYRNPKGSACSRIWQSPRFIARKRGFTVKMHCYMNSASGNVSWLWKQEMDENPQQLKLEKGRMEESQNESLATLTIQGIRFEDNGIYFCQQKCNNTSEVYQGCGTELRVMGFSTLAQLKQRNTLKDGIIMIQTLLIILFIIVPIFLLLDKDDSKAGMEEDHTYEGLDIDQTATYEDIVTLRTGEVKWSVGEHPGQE

T2: human CD79b (recombinant antigen in the ForteBio assays) (human, UniProt P40259 29-159)
T2 construct: the immunogen was CD79b protein from Sino, Cat #29750-H08H; also called huCD79b
T2 sequence (looked up): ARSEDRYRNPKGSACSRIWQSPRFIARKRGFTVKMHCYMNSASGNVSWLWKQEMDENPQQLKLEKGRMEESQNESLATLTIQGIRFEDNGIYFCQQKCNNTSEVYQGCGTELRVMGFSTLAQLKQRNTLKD


Legend:
[1] = target: T1, CD79b on the surface of B-cell …; assay: flow cytometry on BJAB cells, goat anti-human IgG PE
Procedure: (§1) Ramos (ATCC, Cat #CRL-1596) and BJAB (AddexBio, USA, Cat #C0003016) were passaged according to the conventional procedures. Cells were counted after centrifugation and resuspension, adjusted to a density of 4×10⁶ cells/mL, poured into a loading tank, and seeded to a 96-well plate at 50 μL/well using a multichannel pipettor. 50 μL of the antibody sample diluted in gradient was added to the 50 μL of cells in each well, and the mixture was then incubated in an incubator at 5% CO₂ and 37° C. for 30 min. The mixture was centrifuged at 400 g for 5 min, then 200 μL of PBS was added, and the resulting mixture was centrifuged at 400 g for 5 min. This procedure was repeated 3 times. Goat anti-human IgG PE (1:200) was added, and the mixture was incubated for 30 min in the dark at room temperature. The mixture was washed with 200 μL of PBS twice, centrifuged, and then resuspended in 100 μL of PBS, and the values were read using a flow cytometer. The values were fitted to obtain a curve and EC₅₀ values were calculated.
(§2) The binding of the humanized antibodies to Ramos and BJAB cells was detected by flow cytometry. The assay was the same as in Example 4. The binding of the humanized antibodies to CD79b on the surface of Ramos cells is shown in FIG. 3; the binding of the humanized antibodies to CD79b on the surface of BJAB cells is shown in FIG. 4.

[2] = target: T1, CD79b on the surface of B-cell …; assay: flow cytometry on Ramos cells, goat anti-human IgG PE
Procedure: as §1, §2

[3] = target: T2, human CD79b (recombinant antigen in the …); assay: BLI (ForteBio), antibody loaded on sensor, antigen in solution
Procedure: (§3) Briefly, an AMQ (Pall, 1506091) sensor was equilibrated offline in an assay buffer for 30 min and then equilibrated online for 60 s to establish a baseline. The purified antibodies obtained as described above were each loaded online onto an AHQ sensor (ForteBio) for the ForteBio affinity assay. The sensor with the loaded antibody was then exposed to antigen CD79b before transferring the sensor to the assay buffer to measure the dissociation rate. The KD values were analyzed using ForteBio analysis software.
The equilibrium dissociation constants (KD) for the binding of the humanized antibodies of the present invention to human CD79b were determined by ForteBio.

[4] = target: T2, human CD79b (recombinant antigen in the …); assay: as above; remark: listed apart in the source
Procedure: The equilibrium dissociation constants (KD) for binding of the antibodies of the present invention to CD79b were determined by bio-layer interferometry (ForteBio). A ForteBio affinity assay of prior art was performed (Estep, P., et al., “High throughput solution Based measurement of antibody-antigen affinity and epitope binning”, MAbs, 2013.5 (2): 270-8).
as §3

[5] = target: T2, human CD79b (recombinant antigen in the …); assay: BLI (ForteBio)

Row | EC50 (read off the curve) [1] | EC50 (read off the curve) [2] | Kd [3] | Kd [4] | Kd [5] | Binder
1 | ~2 nM | ~2 nM | 0.274 nM | – | – | hz38D9B3.11 (antibody, V domains shown, Humanized monospecific anti-CD79b antibody) VH: QVQLVQSGSELKKPGASVKVSCKASGYTFTDYSMHWVRQAPGQGLEWMGWINTETGEPSYADDFKGRFVFSLDTSVSTAYLQISSLKAEDTAVYYCYYGPYWGQGTLVTVSS VL: EIVLTQSPATLSLSPGERATLSCKASQSVDHDVDSYMDWYQQKPGQAPRLLIYSASNLESGIPARFSGSGSGTDFTLTISSLEPEDFAVYYCQQINEYPYTFGGGTKVEIK
2 | ~3 nM | ~4 nM | 1.84 nM | 1.84 nM | – | A7v14b (antibody, V domains shown, also called CD79b.A7v14b) VH: EVQLVQSGAEVKKPGASVKVSCKASGYTFTTYYMNWVRQAPGQGLEWIGMIDPSDSETHYNQKFQGRATLTVDTSTSTAYLELSSLRSEDTAVYYCSRSLAFWGQGTLVTVSS VL: DIVMTQTPLSLPVTPGQPASISCKSSQSLLDSDGKTYLNWLLQKPGQSPQSLIYLVSKLDSGVPDRFSGSGSGTDFTLKISRVEAEDVGVYYCWQGTHFPQTFGQGTKVEIK
3 | ~2 nM | ~3 nM | 12.7 nM | 12.7 nM | 13.7 nM | polmab (antibody, human IgG1, kappa, V domains shown) VH: EVQLVESGGGLVQPGGSLRLSCAASGYTFSSYWIEWVRQAPGKGLEWIGEILPGGGDTNYNEIFKGRATFSADTSKNTAYLQMNSLRAEDTAVYYCTRRVPIRLDYWGQGTLVTVSS VL: DIQLTQSPSSLSASVGDRVTITCKASQSVDYEGDSFLNWYQQKPGKAPKLLIYAASNLESGVPSRFSGSGSGTDFTLTISSLQPEDFATYYCQQSNEDPLTFGQGTKVEIKR
